What all share (experiment): EMSA
What all share (settings): tags: MBP fusion
For orientation: Mobility shift assays separate free from complexed probe on a gel.

In series [1] the target is T1, ZFP SBS#1319 (synthetic).
T1 chain: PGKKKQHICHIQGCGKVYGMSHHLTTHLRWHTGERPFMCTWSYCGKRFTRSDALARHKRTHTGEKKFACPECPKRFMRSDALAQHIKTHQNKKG
In short, it runs like this:
(§1)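 Purified ZFP was titrated against labeled double-stranded target (1 nM or lower, at least 10-fold below expected Kd) carrying the natural binding site with flanks. Binding buffer was 10 mM Tris pH 7.5, 100 mM KCl, 1 mM MgCl2, 0.1 mM ZnCl2, 5 mM DTT, 10% glycerol, 0.02% BSA, with equilibration for at least 45 min. Bound and free target were separated on a 10% polyacrylamide gel.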

For series [2], the target named is T2, ZFP SBS#1318 (synthetic, UniProt P08047).
T2 chain: T1 chain with M20T, H22S, T25A, T26S
An outline of the steps: as §1

Series [3] concerns the target T3, ZFP SBS#1308 (synthetic).
T3 chain: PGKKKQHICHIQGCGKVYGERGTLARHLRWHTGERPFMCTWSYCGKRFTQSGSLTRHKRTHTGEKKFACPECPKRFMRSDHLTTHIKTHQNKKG
In short, it runs like this: as §1

For series [4], the target named is ZFP SBS#1311 (synthetic). In short, it runs like this: as §1
Chain of ZFP SBS#1311 (synthetic) (chain, as listed by the source): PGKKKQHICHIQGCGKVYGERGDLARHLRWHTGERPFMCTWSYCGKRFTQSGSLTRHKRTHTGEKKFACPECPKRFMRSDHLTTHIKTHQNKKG
Series [5] deals with T4, ZFP SBS#1320 (synthetic).
T4 chain: T3 chain with E20R, R21S, G22D, T23N, S51R, G52A, S53H, T55E, H81A
An outline of the steps: as §1

Series [6] concerns the target T5, ZFP SBS#1321 (synthetic).
T5 chain: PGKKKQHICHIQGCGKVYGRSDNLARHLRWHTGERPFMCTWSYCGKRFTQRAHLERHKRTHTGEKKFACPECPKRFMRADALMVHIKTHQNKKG
An outline of the steps:
as §1

Series [7] concerns the target ZFP SBS#1322 (synthetic). In short, it runs like this:
as §1

For series [8], the target named is ZFP SBS#1324 (synthetic). In short, it runs like this: as §1
Chain of ZFP SBS#1324 (synthetic) (chain, as listed by the source): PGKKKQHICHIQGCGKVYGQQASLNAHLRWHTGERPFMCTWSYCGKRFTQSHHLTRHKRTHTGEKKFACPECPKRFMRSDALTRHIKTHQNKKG
Series [9] deals with ZFP SBS#1323 (synthetic). An outline of the steps:
as §1

Series [10] has as its target T6, ZFP SBS#1248 (synthetic).
T6 chain: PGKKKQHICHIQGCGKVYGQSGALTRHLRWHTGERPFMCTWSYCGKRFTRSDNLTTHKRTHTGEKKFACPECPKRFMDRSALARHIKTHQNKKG
An outline of the steps: as §1

The target in series [11] is ZFP SBS#1300 (synthetic). An outline of the steps:
as §1

Series [12] deals with T7, ZFP SBS#526 (synthetic).
T7 chain: T5 chain with N23H, A25T, Q50E, A52G, E55T, A79S, A81T, M83K, V84K
An outline of the steps: as §1

Series [13] deals with T8, ZFP SBS#739 (synthetic).
T8 chain: T5 chain with N23H, A25T, Q50E, A52G, E55T, A79S, A81D, M83R, V84R
An outline of the steps:
as §1

In series [14] the target is T9, ZFP SBS#1295 (synthetic).
T9 chain: T1 chain with M20D, S21R, H22S, H23S, A53N, A81N, A83T, Q84E
In short, it runs like this: as §1

The target of series [15] is T10, ZFP SBS#1296 (synthetic).
T10 chain: T1 chain with M20E, S21R, H22G, H23D, A53N, A81N, A83T, Q84E
An outline of the steps:
as §1

The target of series [16] is T11, ZFP SBS#1273 (synthetic).
T11 chain: T1 chain with M20E, S21R, H22G, H23D, A53N, A81N, A83R, Q84E
An outline of the steps: as §1

Series [17] has as its target T12, ZFP SBS#1272 (synthetic).
T12 chain: T1 chain with M20D, S21R, H22S, H23S, A53N, A81N, A83R, Q84E
An outline of the steps:
as §1

Series [18] concerns the target ZFP SBS#1314 (synthetic). In short, it runs like this:
as §1

Series [19] deals with ZFP SBS#1315 (synthetic). In short, it runs like this:
as §1

The target in series [20] is T13, ZFP SBS#1303 (synthetic).
T13 chain: T3 chain with E20Q, G22S, T23A, R26S, Q50R, G52D, S53N, T55A, H81N
In short, it runs like this:
as §1

The target in series [21] is T14, ZFP SBS#1310 (synthetic, UniProt P08047).
T14 chain: T3 chain with E20T, R21T, G22S, T23A, R26S, Q50R, G52D, S53N, T55A, H81N
In short, it runs like this:
as §1

Series [22] deals with T15, ZFP SBS#1309 (synthetic).
T15 chain: T1 chain with M20Q, H22S, H23A, T25A, T26S, A53N, A81N, A83T, Q84T
In short, it runs like this:
as §1

Series [23] concerns the target ZFP SBS#1313 (synthetic, UniProt P08047). In short, it runs like this:
as §1

Series [24] deals with ZFP SBS#1312 (synthetic, UniProt P08047). An outline of the steps:
as §1

For series [25], the target named is T16, ZFP SBS#1276 (synthetic).
T16 chain: T5 chain with A52S, H53N, E55V, A79S, A81N, M83T, V84T
An outline of the steps:
as §1

Series [26] addresses ZFP SBS#1297 (synthetic). In short, it runs like this:
as §1

Series [27] has as its target ZFP SBS#1298 (synthetic). An outline of the steps:
as §1

The target in series [28] is T17, ZFP SBS#1239 (synthetic).
T17 chain: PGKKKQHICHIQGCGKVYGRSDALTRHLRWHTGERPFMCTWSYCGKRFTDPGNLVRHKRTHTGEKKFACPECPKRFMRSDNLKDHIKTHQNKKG
An outline of the steps: as §1

Series [29] concerns the target T18, ZFP SBS#1302 (synthetic).
T18 chain: T3 chain with E20Q, R21S, T23H, A25T, G52S, S53D, H81T, T83R, T84E
In short, it runs like this: as §1

Series [30] deals with T19, ZFP SBS#1252 (synthetic).
T19 chain: T3 chain with E20Q, G22A, T23H, A25E, G52S, S53D, H81T, T83R, T84E
An outline of the steps: as §1

In series [31] the target is T20, ZFP SBS#1328 (synthetic).
T20 chain: T3 chain with E20T, R21S, T23H, A25V, G52S, S53A, H81A
An outline of the steps:
as §1

Series [32] addresses T21, ZFP SBS#1327 (synthetic).
T21 chain: T3 chain with E20T, R21S, T23H, A25V, Q50T, H81A
An outline of the steps: as §1

Series [33] addresses T22, ZFP SBS#1325 (synthetic).
T22 chain: T3 chain with E20T, R21S, T23H, A25V, Q50T, H81A, T84K
An outline of the steps:
as §1

Series [34] concerns the target T23, ZFP SBS#1326 (synthetic).
T23 chain: T3 chain with E20T, R21S, T23H, A25V, G52S, S53A, H81A, T84K
In short, it runs like this:
as §1

Series [35] addresses T24, ZFP SBS#1306 (synthetic).
T24 chain: T17 chain with R26T, P51C, G52R, N53D, V55A, N81A, K83R, D84E
An outline of the steps:
as §1

Residue numbers refer to the chain shown, from its start.

In patent US20030068675, “Position dependent recognition of GNN nucleotide triplets by zinc fingers” (published 2003) one finds Kd data, which are given here for 15 molecules.

Chain of ZFP SBS#1315 (synthetic) (chain, as listed by the source): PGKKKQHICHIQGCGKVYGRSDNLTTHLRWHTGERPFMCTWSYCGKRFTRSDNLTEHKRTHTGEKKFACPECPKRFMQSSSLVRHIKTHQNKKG
Chain of ZFP SBS#1298 (synthetic) (chain, as listed by the source): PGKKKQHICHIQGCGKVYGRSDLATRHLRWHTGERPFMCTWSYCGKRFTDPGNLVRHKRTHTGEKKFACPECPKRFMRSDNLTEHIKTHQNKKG
Chain of ZFP SBS#1297 (synthetic) (chain, as listed by the source): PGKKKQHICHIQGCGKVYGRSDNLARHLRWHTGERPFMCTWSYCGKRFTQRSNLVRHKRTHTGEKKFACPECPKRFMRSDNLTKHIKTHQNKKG
Chain of ZFP SBS#1300 (synthetic) (chain, as listed by the source): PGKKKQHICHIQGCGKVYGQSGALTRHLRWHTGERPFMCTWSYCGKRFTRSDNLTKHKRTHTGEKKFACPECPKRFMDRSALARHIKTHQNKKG
Chain of ZFP SBS#1312 (P08047 other isoform, or with tags, fused parts or gaps): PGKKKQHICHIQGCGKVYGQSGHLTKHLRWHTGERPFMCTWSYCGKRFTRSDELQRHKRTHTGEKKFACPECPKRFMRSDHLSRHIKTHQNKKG
Chain of ZFP SBS#1322 (synthetic) (chain, as listed by the source): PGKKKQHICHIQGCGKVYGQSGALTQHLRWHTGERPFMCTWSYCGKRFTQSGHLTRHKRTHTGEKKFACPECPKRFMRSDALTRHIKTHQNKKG
Chain of ZFP SBS#1313 (P08047 other isoform, or with tags, fused parts or gaps): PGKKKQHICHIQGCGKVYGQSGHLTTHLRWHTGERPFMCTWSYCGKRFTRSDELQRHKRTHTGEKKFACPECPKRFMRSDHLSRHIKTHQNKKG

B1: ATGGTGTGT (dsDNA)
DNA 1: ATGGTGTGT
DNA 2: ACACACCAT
As for B1, the Kd (as a rule, the concentration at which binding is half-saturated) turned out to be 0.228 nM in [1] and 0.048 nM in [2].

B2: TGGGCAGCC (dsDNA)
DNA 1: TGGGCAGCC
DNA 2: GGCTGCCCA
B2: the Kd in series [3] turned out to be 0.305 nM; in series [4], 0.91 nM.

B3: TTGGGAGAG (dsDNA)
DNA 1: TTGGGAGAG
DNA 2: CTCTCCCAA
In the case of B3, the Kd in series [5] was 0.044 nM; in series [6], 0.127 nM.

B4: GTGGGAATA (dsDNA)
DNA 1: GTGGGAATA
DNA 2: TATTCCCAC
Turning to B4, the results for the Kd in [7], in series [8] and in series [9] were 0.799 nM, 18.5 nM and 0.744 nM, respectively.

B5: GTCTAGGTA (dsDNA)
DNA 1: GTCTAGGTA
DNA 2: TACCTAGAC
With B5, the figures for the Kd in series [10] and in series [11] were 5.14 nM and 0.46 nM, respectively.

B6: GCGGGCGGGC (dsDNA)
DNA 1: GCGGGCGGGC
DNA 2: GCCCGCCCGC
On to B6, for which the Kd in series [12] was found to be 8 nM; in series [13], 16.5 nM.

B7: CAGGAGTCC (dsDNA)
DNA 1: CAGGAGTCC
DNA 2: GGACTCCTG
On to B7, for which the Kd worked out at 0.116 nM in series [14], 37 nM in series [15], 0.1 nM in [16] and 0.04 nM in series [17].

B8: GTACAGTAG (dsDNA)
DNA 1: GTACAGTAG
DNA 2: CTACTGTAC
Turning to B8, the Kd in [18] is 3.09 nM; in series [19], 9.27 nM.

B9: TAGGAGTTT (dsDNA)
DNA 1: TAGGAGTTT
DNA 2: AAACTCCTA
As to B9, the values for the Kd in series [20], in series [21] and in series [22] were 0.088 nM, 0.075 nM and 0.184 nM, respectively.

B10: GGGGCGTGA (dsDNA)
DNA 1: GGGGCGTGA
DNA 2: TCACGCCCC
As to B10, the Kd is 0.09 nM in series [23] and 0.23 nM in [24].

B11: TAGGAAGAG (dsDNA)
DNA 1: TAGGAAGAG
DNA 2: CTCTTCCTA
Consider B11, for which the Kd in series [25] worked out at 0.685 nM; in series [26] it was 0.05 nM.

B12: CAGGACGTG (dsDNA)
DNA 1: CAGGACGTG
DNA 2: CACGTCCTG
Turning to B12, the values for the Kd in series [27] and in series [28] were 0.05 nM and 0.144 nM, respectively.

B13: CCGGCTGGA (dsDNA)
DNA 1: CCGGCTGGA
DNA 2: TCCAGCCGG
Consider B13, for which the Kd in series [29] stood at 0.05 nM; in series [30], 0.153 nM.

B14: TTGGTTGGT (dsDNA)
DNA 1: TTGGTTGGT
DNA 2: ACCAACCAA
As to B14, the Kd in [31] stood at 7.95 nM; in series [32], 0.566 nM; in series [33] it was 0.306 nM; in [34], 4.38 nM.

B15: CTGGCCTTG (dsDNA)
DNA 1: CTGGCCTTG
DNA 2: CAAGGCCAG
The molecule B15 displayed a Kd in series [35] of 2.29 nM.
